Substitutions are numbered along the chain they refer to. Numbers in names are those of the source.
B1: VHH3-M1 (VHH)
VHH: QVQLQDSGGGLVQAGGSLRLSCAVSGRTFSAHSVYTMGWFRQAPGKEREFVARIYWSSANTYYADSVKGRFTISRDNAKNTVDLQMNSLRPEDTAVYYCAARDGIPTSRTVGSYNYWGQGTQVTVSS
notes: redesigned variant of VHH3 (carries L90Q, IMGT numbering); Designed by TFDesign-sdAb; pComb3x with N-terminal OmpA signal peptide; also called VHH-M1; source: E. coli HB2151, purified (Ni-NTA or Protein A resin); also in lysis supernatant; not shown: FLAG, C-terminal, kept
B2: VHH3-M3 (VHH)
VHH: B1 VHH with D83Y
notes: redesigned variant of VHH3 (carries L90Q; differs from VHH3-M1 only at position 88, IMGT numbering); Designed by TFDesign-sdAb; pComb3x with N-terminal OmpA signal peptide; also called VHH-M3; source: E. coli HB2151, purified (Ni-NTA or Protein A resin); also in lysis supernatant; not shown: FLAG, C-terminal, kept

Biological target: T1, Recombinant human TNFα (Homo sapiens, UniProt P01375)
T1 construct: human TNFα, residues 77-233 of GenBank AAA61198.1, behind an N-terminal signal peptide and 6x His tag; also called hTNFα; TFNα; source: Expi293, transient transfection, purified (Ni-NTA)
Assay: ELISA; 100-200 ng/well antigen coated in PBS, sdAbs added in 3-fold serial dilutions, 1.5 h at 37 °C, detected with HRP anti-flag antibody
Conditions: both partners purified

T1 sequence (P01375 77-233): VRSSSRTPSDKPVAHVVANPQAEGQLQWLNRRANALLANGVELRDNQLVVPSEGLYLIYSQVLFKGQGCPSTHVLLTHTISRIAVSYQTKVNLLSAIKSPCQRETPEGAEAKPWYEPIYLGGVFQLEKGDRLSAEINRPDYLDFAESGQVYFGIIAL

Row | Binder | binding result
1 | B1 | binds
2 | B2 | binds

— paper PMC12572175, “A synergistic generative-ranking framework for tailored design of therapeutic single-domain antibodies” (Cell Discovery, 2025)
